Our source for the Kd values is patent publication US9084745B2, “Modulation of the Vps10p-domain for the treatment of cardiovascular disease” (H. Lundback A/S, priority 2008, dated 2015).

The target in this assay is T1, recombinant human sortilin (Homo sapiens, UniProt Q99523).
T1 sequence (Q99523 78-755 limits assumed): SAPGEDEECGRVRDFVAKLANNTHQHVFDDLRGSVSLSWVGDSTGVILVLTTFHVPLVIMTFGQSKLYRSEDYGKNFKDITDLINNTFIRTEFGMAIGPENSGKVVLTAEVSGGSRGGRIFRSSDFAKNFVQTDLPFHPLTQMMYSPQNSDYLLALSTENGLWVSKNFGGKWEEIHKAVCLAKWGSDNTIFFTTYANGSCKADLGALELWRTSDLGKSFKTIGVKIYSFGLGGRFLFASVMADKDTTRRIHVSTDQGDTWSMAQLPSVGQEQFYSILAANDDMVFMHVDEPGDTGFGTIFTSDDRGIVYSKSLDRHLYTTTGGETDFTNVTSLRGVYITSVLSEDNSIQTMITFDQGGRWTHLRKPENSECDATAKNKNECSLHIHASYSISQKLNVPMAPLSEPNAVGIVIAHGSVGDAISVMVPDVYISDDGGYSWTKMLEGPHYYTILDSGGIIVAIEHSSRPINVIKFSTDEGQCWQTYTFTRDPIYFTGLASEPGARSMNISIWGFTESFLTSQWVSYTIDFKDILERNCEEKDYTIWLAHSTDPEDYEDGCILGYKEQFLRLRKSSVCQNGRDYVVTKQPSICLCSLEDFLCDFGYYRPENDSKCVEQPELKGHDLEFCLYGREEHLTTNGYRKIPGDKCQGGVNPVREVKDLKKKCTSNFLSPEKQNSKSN
Description: Surface plasmon resonance analysis of ApoB binding to immobilized sortilin. As to conditions: ApoB 10, 20, 50 nM, on and off rates recorded, displayed experiment. Here is the method:
FIG. 5b: Characterization of ApoB binding to recombinant human sortilin (30). Sortilin was immobilized on a BIAcore CM5 sensorchip at a density of […]. A) After baseline calibration in running buffer (10 mM Hepes, 150 mM NaCl, 1 mM EGTA, 1.5 mM CaCl2, 0.005% P20, pH 7.4) 10 μg/ml rabbit anti-sortilin IgG (12) or running buffer alone was applied to the chip. At t=700 sec the response units obtained in the presence of anti-sortilin IgG was arbitrarily set at 100 and 50 nM ApoB was applied to the flow cell pre-incubated with antibody or with buffer alone. Association of ApoB binding was measured until 1200 sec, after which the solute was changed to buffer to allow dissociation. […]
Determination of direct binding of ligand to immobilized protein can be performed by e.g. surface plasmon resonance analysis (Biacore, Sweden) using CaHBS as standard running buffer (10 mM HEPES, pH 7.4, 140 mM NaCl, 2 mM CaCl2, 1 mM EGTA, and 0.005% Tween-20). […] In another approach, inhibition of an established ligand can be monitored in the absence or presence of putative inhibitors. […] The data collected are analysed by fitting of sensorgrams for affinity estimations and inhibitory potential using the Biaevaluation version 3.1 program. We evaluated the binding properties of ApoB to sortilin (FIG. 5b). […]

“ApoB: apolipoprotein B, the part of LDL that binds to the LDL receptor; tested as sortilin ligand”: the dissociation constant (Kd) was 0.4 nM.
